Measured values taken from patent publication US20030203869A1.

Target: purified HLA-A2.1 molecules (human)
Test: inhibition of binding of a labeled reference peptide to purified HLA-A2.1

Substance	IC50 [nM]
HBV Core 18 (HBV core 18-27) CTL epitope peptide […] (peptide; other documents disagree on this pair)	3
HBV Pol 551-A (native HBV pol 551-559) CTL epitope peptide […] (peptide; other documents disagree on this pair)	200
HIV Pol 476 (HIV pol 476-484) CTL epitope peptide […] (peptide; other documents disagree on this pair)	192
